Data from patent US20210388110A1.

Biological target: extracellular matrix (BD Matrigel)
Experiment: ECL on Matrigel-coated plate, relative to MRAH-G1d/MRAL-k0

Row | ECM binding ratio (standard = 1) | Binder
1 | 1.3 | TR01H084-E2702GsKsc/GCH065-E2704sEpsc/L0011-k0 (bispecific antibody, human IgG4 S228P, kappa, N297A) heavy 1: QVQLVESGGGVVQPGGSLRLSCAASGFTFSNAWMHWVRQAPGKGLEWVAQIKDKSQNYATYYAESVKGRFTISRADSKNSIYLQMNSLKTEDTAVYYCRYVHYAAGYGVDIWGQGTTVTVSSASTKGPSVFPLAPCSRSTSESTAALGCLVKDYFPEPVTVSWNSGALTSGVHTFPAVLQSSGLYSLSSVVTVPSSSLGTKTYTCNVDHKPSNTKVDKRVESKYGPPCPPCPAPEFRGGPKVFLFPPKPKDTLMISRTPEVTCVVVDVSQEDPEVQFNWYVDGVEVHNAKTKPREEQFASTYRVVSVLTVLHQDWLNGKEYKCKVSNKGLPSSIEKTISKAKGQPREPQVYTLPPSQKEMTKNQVSLTCLVKGFYPSDIAVEWESNGQPENNYKTTPPVLDSDGSFFLYSKLTVDKSRWQEGNVFSCSVMHEALHNRYTQKSLSLSP heavy 2: QVQLVQSGAEVKKPGASVTVSCKASGYTFTDYEMHWIRQPPGEGLEWIGAIDGPTPDTAYSEKFKGRVTLTADKSTSTAYMELSSLTSEDTAVYYCTRFYSYTYWGQGTLVTVSSASTKGPSVFPLAPCSRSTSESTAALGCLVKDYFPEPVTVSWNSGALTSGVHTFPAVLQSSGLYSLSSVVTVPSSSLGTQTYTCNVDHKPSNTKVDKRVESKYGPPCPPCPAPEFRGGPKVFLFPPKPKDTLMISRTPEVTCVVVDVSQEDPEVQFNWYVDGVEVHNAKTKPREEQFASTYRVVSVLTVLHQDWLNGKEYKCKVSNKGLPSSIEKTISKAKGQPREPQVYTLPPSQEEMTKNQVSLTCLVKGFYPSDIAVEWESNGQPENNYKTTPPVLDSDGSFFLYSKLTVDKSRWQEGNVFSCSVMHEALHNHYTQESLSLSP light: DIVMTQSPLSLPVTPGEPASISCRSSQPLVHSNRNTYLHWYQQKPGQAPRLLIYKVSNRFSGVPDRFSGSGSGTDFTLKISRVEAEDVGVYYCGQGTQVPYTFGQGTKLEIKRTVAAPSVFIFPPSDEQLKSGTASVVCLLNNFYPREAKVQWKVDNALQSGNSQESVTEQDSKDSTYSLSSTLTLSKADYEKHKVYACEVTHQGLSSPVTKSFNRGEC
2 | 0.8 | TR01H040-E2702GsKsc/H0610-E2704sEpsc/L0201-k0 (bispecific antibody, human IgG4 S228P, kappa, N297A) heavy 1: QVQLVESGGGLVQPGRSLRLSCAASGFTFSNAWMHWVRQAPGKGLEWVAQIKDKSQNYATYYAESVKGRFTISRADSKNSIYLQMNSLKTEDTAVYYCRYVHYSASYGVDAWGQGTTVTVSSASTKGPSVFPLAPCSRSTSESTAALGCLVKDYFPEPVTVSWNSGALTSGVHTFPAVLQSSGLYSLSSVVTVPSSSLGTKTYTCNVDHKPSNTKVDKRVESKYGPPCPPCPAPEFRGGPKVFLFPPKPKDTLMISRTPEVTCVVVDVSQEDPEVQFNWYVDGVEVHNAKTKPREEQFASTYRVVSVLTVLHQDWLNGKEYKCKVSNKGLPSSIEKTISKAKGQPREPQVYTLPPSQKEMTKNQVSLTCLVKGFYPSDIAVEWESNGQPENNYKTTPPVLDSDGSFFLYSKLTVDKSRWQEGNVFSCSVMHEALHNRYTQKSLSLSP heavy 2: QVQLVQSGAEVKKPGASVKVSCKASGYTFTDYEMHWIRQPPGQGLEWIGAIDGKTPDTAYSQKFKGRVTLTADKSTSTAYMELSSLTSEDTAVYYCTRFYSYTYWGQGTLVTVSSASTKGPSVFPLAPCSRSTSESTAALGCLVKDYFPEPVTVSWNSGALTSGVHTFPAVLQSSGLYSLSSVVTVPSSSLGTQTYTCNVDHKPSNTKVDKRVESKYGPPCPPCPAPEFRGGPKVFLFPPKPKDTLMISRTPEVTCVVVDVSQEDPEVQFNWYVDGVEVHNAKTKPREEQFASTYRVVSVLTVLHQDWLNGKEYKCKVSNKGLPSSIEKTISKAKGQPREPQVYTLPPSQEEMTKNQVSLTCLVKGFYPSDIAVEWESNGQPENNYKTTPPVLDSDGSFFLYSKLTVDKSRWQEGNVFSCSVMHEALHNHYTQESLSLSP light: DIVMTQSPLSLPVTPGEPASISCRSSQPPVHSNRNTYLHWYQQKPGQAPRLLIYKVSNRFSGVPDRFSGSGSGTDFTLKISRVEAEDVGVYYCGQGTQVPYTFGQGTKLEIKRTVAAPSVFIFPPSDEQLKSGTASVVCLLNNFYPREAKVQWKVDNALQSGNSQESVTEQDSKDSTYSLSSTLTLSKADYEKHKVYACEVTHQGLSSPVTKSFNRGEC

Continued, binder first:

Row | Binder | ECM binding ratio (standard = 1)
3 | TR01H040-E2702GsKsc/H0610-E2704sEpsc/L0000-k0 (bispecific antibody, human IgG4 S228P, kappa, N297A) heavy 1: QVQLVESGGGLVQPGRSLRLSCAASGFTFSNAWMHWVRQAPGKGLEWVAQIKDKSQNYATYYAESVKGRFTISRADSKNSIYLQMNSLKTEDTAVYYCRYVHYSASYGVDAWGQGTTVTVSSASTKGPSVFPLAPCSRSTSESTAALGCLVKDYFPEPVTVSWNSGALTSGVHTFPAVLQSSGLYSLSSVVTVPSSSLGTKTYTCNVDHKPSNTKVDKRVESKYGPPCPPCPAPEFRGGPKVFLFPPKPKDTLMISRTPEVTCVVVDVSQEDPEVQFNWYVDGVEVHNAKTKPREEQFASTYRVVSVLTVLHQDWLNGKEYKCKVSNKGLPSSIEKTISKAKGQPREPQVYTLPPSQKEMTKNQVSLTCLVKGFYPSDIAVEWESNGQPENNYKTTPPVLDSDGSFFLYSKLTVDKSRWQEGNVFSCSVMHEALHNRYTQKSLSLSP heavy 2: QVQLVQSGAEVKKPGASVKVSCKASGYTFTDYEMHWIRQPPGQGLEWIGAIDGKTPDTAYSQKFKGRVTLTADKSTSTAYMELSSLTSEDTAVYYCTRFYSYTYWGQGTLVTVSSASTKGPSVFPLAPCSRSTSESTAALGCLVKDYFPEPVTVSWNSGALTSGVHTFPAVLQSSGLYSLSSVVTVPSSSLGTQTYTCNVDHKPSNTKVDKRVESKYGPPCPPCPAPEFRGGPKVFLFPPKPKDTLMISRTPEVTCVVVDVSQEDPEVQFNWYVDGVEVHNAKTKPREEQFASTYRVVSVLTVLHQDWLNGKEYKCKVSNKGLPSSIEKTISKAKGQPREPQVYTLPPSQEEMTKNQVSLTCLVKGFYPSDIAVEWESNGQPENNYKTTPPVLDSDGSFFLYSKLTVDKSRWQEGNVFSCSVMHEALHNHYTQESLSLSP light: DIVMTQSPLSLPVTPGEPASISCRSSQSLVHSNRNTYLHWYQQKPGQAPRLLIYKVSNRFSGVPDRFSGSGSGTDFTLKISRVEAEDVGVYYCGQGTQVPYTFGQGTKLEIKRTVAAPSVFIFPPSDEQLKSGTASVVCLLNNFYPREAKVQWKVDNALQSGNSQESVTEQDSKDSTYSLSSTLTLSKADYEKHKVYACEVTHQGLSSPVTKSFNRGEC | 0.8
4 | TR01H084-E2702GsKsc/GCH094-E2704sEpsc/L0011-k0 (bispecific antibody, human IgG4 S228P, kappa, N297A) heavy 1: QVQLVESGGGVVQPGGSLRLSCAASGFTFSNAWMHWVRQAPGKGLEWVAQIKDKSQNYATYYAESVKGRFTISRADSKNSIYLQMNSLKTEDTAVYYCRYVHYAAGYGVDIWGQGTTVTVSSASTKGPSVFPLAPCSRSTSESTAALGCLVKDYFPEPVTVSWNSGALTSGVHTFPAVLQSSGLYSLSSVVTVPSSSLGTKTYTCNVDHKPSNTKVDKRVESKYGPPCPPCPAPEFRGGPKVFLFPPKPKDTLMISRTPEVTCVVVDVSQEDPEVQFNWYVDGVEVHNAKTKPREEQFASTYRVVSVLTVLHQDWLNGKEYKCKVSNKGLPSSIEKTISKAKGQPREPQVYTLPPSQKEMTKNQVSLTCLVKGFYPSDIAVEWESNGQPENNYKTTPPVLDSDGSFFLYSKLTVDKSRWQEGNVFSCSVMHEALHNRYTQKSLSLSP heavy 2: QVQLVQSGAEVKKPGASVTVSCKASGYTFTDYEMHWVRQAPGEGLEWMGAIDGETPDTAYSEKFKGRVTLTADKSTSTAYMELSSLTSEDTAVYYCTRFYSYTYWGQGTLVTVSSASTKGPSVFPLAPCSRSTSESTAALGCLVKDYFPEPVTVSWNSGALTSGVHTFPAVLQSSGLYSLSSVVTVPSSSLGTQTYTCNVDHKPSNTKVDKRVESKYGPPCPPCPAPEFRGGPKVFLFPPKPKDTLMISRTPEVTCVVVDVSQEDPEVQFNWYVDGVEVHNAKTKPREEQFASTYRVVSVLTVLHQDWLNGKEYKCKVSNKGLPSSIEKTISKAKGQPREPQVYTLPPSQEEMTKNQVSLTCLVKGFYPSDIAVEWESNGQPENNYKTTPPVLDSDGSFFLYSKLTVDKSRWQEGNVFSCSVMHEALHNHYTQESLSLSP light: DIVMTQSPLSLPVTPGEPASISCRSSQPLVHSNRNTYLHWYQQKPGQAPRLLIYKVSNRFSGVPDRFSGSGSGTDFTLKISRVEAEDVGVYYCGQGTQVPYTFGQGTKLEIKRTVAAPSVFIFPPSDEQLKSGTASVVCLLNNFYPREAKVQWKVDNALQSGNSQESVTEQDSKDSTYSLSSTLTLSKADYEKHKVYACEVTHQGLSSPVTKSFNRGEC | 1.2
5 | TR01H082-E2702GsKsc/GCH094-E2704sEpsc/L0201-k0 (bispecific antibody, human IgG4 S228P, kappa, N297A) heavy 1: QVQLVESGGGLVQPGRSLRLSCAASGFTFSNAWMHWVRQAPGKGLEWVAQIKDKSQNYATYYAESVKGRFTISRDDSKNSLYLQMNSLKTEDTAVYYCRYVHYAAGYGVDAWGQGTTVTVSSASTKGPSVFPLAPCSRSTSESTAALGCLVKDYFPEPVTVSWNSGALTSGVHTFPAVLQSSGLYSLSSVVTVPSSSLGTKTYTCNVDHKPSNTKVDKRVESKYGPPCPPCPAPEFRGGPKVFLFPPKPKDTLMISRTPEVTCVVVDVSQEDPEVQFNWYVDGVEVHNAKTKPREEQFASTYRVVSVLTVLHQDWLNGKEYKCKVSNKGLPSSIEKTISKAKGQPREPQVYTLPPSQKEMTKNQVSLTCLVKGFYPSDIAVEWESNGQPENNYKTTPPVLDSDGSFFLYSKLTVDKSRWQEGNVFSCSVMHEALHNRYTQKSLSLSP heavy 2: QVQLVQSGAEVKKPGASVTVSCKASGYTFTDYEMHWVRQAPGEGLEWMGAIDGETPDTAYSEKFKGRVTLTADKSTSTAYMELSSLTSEDTAVYYCTRFYSYTYWGQGTLVTVSSASTKGPSVFPLAPCSRSTSESTAALGCLVKDYFPEPVTVSWNSGALTSGVHTFPAVLQSSGLYSLSSVVTVPSSSLGTQTYTCNVDHKPSNTKVDKRVESKYGPPCPPCPAPEFRGGPKVFLFPPKPKDTLMISRTPEVTCVVVDVSQEDPEVQFNWYVDGVEVHNAKTKPREEQFASTYRVVSVLTVLHQDWLNGKEYKCKVSNKGLPSSIEKTISKAKGQPREPQVYTLPPSQEEMTKNQVSLTCLVKGFYPSDIAVEWESNGQPENNYKTTPPVLDSDGSFFLYSKLTVDKSRWQEGNVFSCSVMHEALHNHYTQESLSLSP light: DIVMTQSPLSLPVTPGEPASISCRSSQPPVHSNRNTYLHWYQQKPGQAPRLLIYKVSNRFSGVPDRFSGSGSGTDFTLKISRVEAEDVGVYYCGQGTQVPYTFGQGTKLEIKRTVAAPSVFIFPPSDEQLKSGTASVVCLLNNFYPREAKVQWKVDNALQSGNSQESVTEQDSKDSTYSLSSTLTLSKADYEKHKVYACEVTHQGLSSPVTKSFNRGEC | 1.1
